Patent US20260250371A1 (ULTRAGENYX PHARMACEUTICAL, published 2026)
“And” between values parts separate entries of the source, which are not always exact repeats. Equal entries are not always repeated. Where two headings read alike, the source gives them in different places.

T1: recombinant human FGF23 (R179Q) (human, UniProt Q9GZV9 25-251)
T1 construct: also called rhFGF23(R179Q); hFGF23(R179Q)
T1 sequence (looked up): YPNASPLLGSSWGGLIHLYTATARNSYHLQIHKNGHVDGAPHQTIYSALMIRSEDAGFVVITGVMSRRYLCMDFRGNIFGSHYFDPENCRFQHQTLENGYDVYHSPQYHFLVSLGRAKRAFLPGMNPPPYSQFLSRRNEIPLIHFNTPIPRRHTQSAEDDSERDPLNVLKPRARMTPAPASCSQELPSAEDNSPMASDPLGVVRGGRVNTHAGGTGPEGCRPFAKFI

T2: cynomolgus monkey (Macaca fascicularis) FGF23 (R179Q) (cynomolgus monkey (Macaca fascicularis), UniProt Q9GZV9 25-251 (human entry), limits assumed)
T2 construct: also called cynoFGF23; cynoFGF23(R179Q)
T2 chain: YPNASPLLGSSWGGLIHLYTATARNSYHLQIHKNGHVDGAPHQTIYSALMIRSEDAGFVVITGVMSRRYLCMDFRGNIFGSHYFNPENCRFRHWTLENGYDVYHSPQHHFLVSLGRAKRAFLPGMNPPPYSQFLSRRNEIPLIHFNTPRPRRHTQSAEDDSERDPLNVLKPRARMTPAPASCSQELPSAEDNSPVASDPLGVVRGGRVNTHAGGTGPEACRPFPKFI


Tests used:
[1] = target: the molecule itself; assay: X-ray crystal structure of the hFGF23(R179Q):burosumab Fab complex
Procedure: To further characterize the human FGF23-burosumab interaction, x-ray crystallographic study was carried out using fully glycosylated human FGF23 (R179Q) from HEK293S cell supernatant in complex with burosumab Fab fragments also expressed in HEK293S cells. Burosumab IgG heavy and light chains were subjected to papain digestion to separate Fc and Fab fragments, then Protein A to isolate Fab fragments of approximately 50 kDa, according to routine methods (Pierce™ Fab Preparation Kit, Thermo Scientific™, cat #!44985). Fully glycosylated human FGF23 (R179Q) and burosumab Fab fragments were incubated on ice for more than one hour (1:0.8 molar ratio) and the stable complex was isolated by size exclusion chromatography (SEC) followed by evaluation by SDS-PAGE. SEC fractions containing the complex were pooled, concentrated, and stored at −80° C.
Diffraction data was collected from a single crystal at the Advanced Photon Source (APS) synchrotron and processed using autoPROC (autoProc, XDS, POINTLESS, AIMLESS, CCP4, and STARANISO) (see Vonrhein C, Flensburg C, Keller P, Sharff A, Smart O, Paciorek W, Womack T, Bricogne G. Data processing and analysis with the autoPROC toolbox. Acta Crystallogr D Biol Crystallogr. 2011 April; 67(Pt 4):293-302. [doi:10.1107/S0907444911007773]). […]

[2] = target: T1, recombinant human FGF23 (R179Q); assay: SPR, antibody captured on hIgG chip, rhFGF23(R179Q) analyte
[3] = target: T2, cynomolgus monkey (Macaca fascicularis) …; assay: SPR, antibody captured on hIgG chip, cynoFGF23(R179Q) analyte, single cycle kinetics
Procedure: Binding kinetics of 13 antibody variants shown in Table 19 were characterized against cynomolgus monkey (Macaca fascicularis) FGF23 (R179Q) (i.e., “cynoFGF23”) (SEQ ID NO: 372). Antibody variants were expressed at small scale (3 ml) and screened by SPR analysis at a single concentration (100 nM). Experimental setup of SPR analysis for CRC: SPR device—8K+; chip preparation—CM5 hIgG chip: channels—1-8; immobilization concentration—1.5 ug/ml; immobilization method—capture; flow rate—5 μl/min; contact time—60 s; running buffer—1×HBS-EP+pH 7.4; temperature—20° C.: flow rate—50 μl/min; association time—120 s; dissociation time—1800 s; antigen—cynoFGF23(R179Q): top concentration—0.1 μM, 9-pt 3-fold Single Cycle Kinetics.

[4] = target: T1, recombinant human FGF23 (R179Q); assay: SPR, antibody captured on hIgG chip, human FGF23 analyte
[5] = target: T1, recombinant human FGF23 (R179Q); assay: SPR, antibody captured on hIgG chip, rhFGF23(R179Q) analyte; remark: listed apart in the source

Binder	Kd [2]	Ratio (variant antibody KD/burosumab KD) [2]	koff [2]	kon [2]	KD ratio (variant antibody KD/burosumab KD) [3]	Kd [3] [pM]	KD ratio (variant antibody KD/burosumab KD) [4]	Kd [4] [pM]	Kd [5] [pM]	Ratio (variant antibody KD/burosumab KD) [5]	SA (surface activity) [5] [%]	koff [5] [s⁻¹]	kon [5] [M⁻¹ s⁻¹]	SA (surface activity) [2] [%]	binding result [1]
human FGF23 (R179Q) (ligand, UniProt Q9GZV9 25-251, looked up, fully glycosylated (from HEK293S cells), also called hFGF23(R179Q); rhFGF23(R179Q)) YPNASPLLGSSWGGLIHLYTATARNSYHLQIHKNGHVDGAPHQTIYSALMIRSEDAGFVVITGVMSRRYLCMDFRGNIFGSHYFDPENCRFQHQTLENGYDVYHSPQYHFLVSLGRAKRAFLPGMNPPPYSQFLSRRNEIPLIHFNTPIPRRHTQSAEDDSERDPLNVLKPRARMTPAPASCSQELPSAEDNSPMASDPLGVVRGGRVNTHAGGTGPEGCRPFAKFI															binds
UGX144 (antibody, human IgG1, kappa, V domains shown, also called LC:Y94D; Y94D) VH: QVQLVQSGAEVKKPGASVKVSCKASGYTFTNHYMHWVRQAPGQGLEWMGIINPISGSTSNAQKFQGRVTMTRDTSTSTVYMELSSLRSEDTAVYYCARDIVDAFDFWGQGTMVTVSS VL: AIQLTQSPSSLSASVGDRVTITCRASQGISSALVWYQQKPGKAPKLLIYDASSLESGVPSRFSGSGSGTDFTLTISSLQPEDFATYYCQQFNDDFTFGPGTKVDIKR	6.58 pM and 5.77 pM		7.03e-05 s⁻¹ and 6.31e-05 s⁻¹	1.07e+07 M⁻¹ s⁻¹ and 1.09e+07 M⁻¹ s⁻¹	3	6.86	4	5.77	5.77	4	89.5	6.31e-05	1.09e+07		
UGX206 (antibody, human IgG1, kappa, V domains shown, also called HC:S59E, LC:Y94E; S59E/Y94E) VH: QVQLVQSGAEVKKPGASVKVSCKASGYTFTNHYMHWVRQAPGQGLEWMGIINPISGSTENAQKFQGRVTMTRDTSTSTVYMELSSLRSEDTAVYYCARDIVDAFDFWGQGTMVTVSS VL: AIQLTQSPSSLSASVGDRVTITCRASQGISSALVWYQQKPGKAPKLLIYDASSLESGVPSRFSGSGSGTDFTLTISSLQPEDFATYYCQQFNDEFTFGPGTKVDIKR	6.62 pM and 7.87 pM and 10.9 pM		5.72e-05 s⁻¹ and 4.92e-05 s⁻¹ and 8.37e-05 s⁻¹	8.64e+06 M⁻¹ s⁻¹ and 6.25e+06 M⁻¹ s⁻¹ and 7.69e+06 M⁻¹ s⁻¹	3	7.16	3	7.87	7.87	3	108	4.92e-05	6.25e+06		

Now from value to binder, other results behind:

Kd [2]	Ratio (variant antibody KD/burosumab KD) [2]	koff [2]	kon [2]	KD ratio (variant antibody KD/burosumab KD) [3]	Kd [3] [pM]	KD ratio (variant antibody KD/burosumab KD) [4]	Kd [4] [pM]	Kd [5] [pM]	Ratio (variant antibody KD/burosumab KD) [5]	SA (surface activity) [5] [%]	koff [5] [s⁻¹]	kon [5] [M⁻¹ s⁻¹]	SA (surface activity) [2] [%]	Binder	binding result [1]
7.53 pM and 7.59 pM and 8.07 pM	3	8.91e-05 s⁻¹ and 9.8e-05 s⁻¹ and 9.45e-05 s⁻¹	1.2e+07 M⁻¹ s⁻¹ (2×) and 1.3e+07 M⁻¹ s⁻¹	3	6.93	3	7.59	7.59	3	91.6	9.8e-05	1.29e+07		UGX202 (antibody, human IgG1, kappa, V domains shown, also called HC:S59E, LC:N92Y; S59E/N92Y) VH: QVQLVQSGAEVKKPGASVKVSCKASGYTFTNHYMHWVRQAPGQGLEWMGIINPISGSTENAQKFQGRVTMTRDTSTSTVYMELSSLRSEDTAVYYCARDIVDAFDFWGQGTMVTVSS VL: AIQLTQSPSSLSASVGDRVTITCRASQGISSALVWYQQKPGKAPKLLIYDASSLESGVPSRFSGSGSGTDFTLTISSLQPEDFATYYCQQFYDYFTFGPGTKVDIKR	
4.07 pM	5	6.25e-05 s⁻¹	1.53e+07 M⁻¹ s⁻¹	9	2.57	5	4.07	4.07	5	93.9	6.25e-05	1.53e+07	93.9	UGX205 (antibody, human IgG1, kappa, V domains shown, also called HC:S59E, LC:Y94D; S59E/Y94D) VH: QVQLVQSGAEVKKPGASVKVSCKASGYTFTNHYMHWVRQAPGQGLEWMGIINPISGSTENAQKFQGRVTMTRDTSTSTVYMELSSLRSEDTAVYYCARDIVDAFDFWGQGTMVTVSS VL: AIQLTQSPSSLSASVGDRVTITCRASQGISSALVWYQQKPGKAPKLLIYDASSLESGVPSRFSGSGSGTDFTLTISSLQPEDFATYYCQQFNDDFTFGPGTKVDIKR	
11.3 pM and 12.4 pM and 11.5 pM	2	0.000145 s⁻¹ and 0.000134 s⁻¹	1.3e+07 M⁻¹ s⁻¹ (2×) and 1.1e+07 M⁻¹ s⁻¹	1	22.9	2	11.5	11.5	2	81.4	0.000145	1.26e+07		UGX203 (antibody, human IgG1, kappa, V domains shown, also called HC:S59E, LC:S52D; S59E/S52D) VH: QVQLVQSGAEVKKPGASVKVSCKASGYTFTNHYMHWVRQAPGQGLEWMGIINPISGSTENAQKFQGRVTMTRDTSTSTVYMELSSLRSEDTAVYYCARDIVDAFDFWGQGTMVTVSS VL: AIQLTQSPSSLSASVGDRVTITCRASQGISSALVWYQQKPGKAPKLLIYDADSLESGVPSRFSGSGSGTDFTLTISSLQPEDFATYYCQQFNDYFTFGPGTKVDIKR	
13.3 pM and 14 pM and 18.3 pM		0.000186 s⁻¹ and 0.000121 s⁻¹ and 0.000138 s⁻¹	1.4e+07 M⁻¹ s⁻¹ and 8.64e+06 M⁻¹ s⁻¹ and 7.57e+06 M⁻¹ s⁻¹	1	16	2	13.3	13.3	2	90.4	0.000186	1.4e+07		UGX204 (antibody, human IgG1, kappa, V domains shown, also called HC:S59E, LC:S52E; S59E/S52E) VH: QVQLVQSGAEVKKPGASVKVSCKASGYTFTNHYMHWVRQAPGQGLEWMGIINPISGSTENAQKFQGRVTMTRDTSTSTVYMELSSLRSEDTAVYYCARDIVDAFDFWGQGTMVTVSS VL: AIQLTQSPSSLSASVGDRVTITCRASQGISSALVWYQQKPGKAPKLLIYDAESLESGVPSRFSGSGSGTDFTLTISSLQPEDFATYYCQQFNDYFTFGPGTKVDIKR	
